In PMC9411592, “Specificity of TGF-β1 signal designated by LRRC33 and integrin αVβ8” (Nature Communications, 2022):
Changes are numbered by the printed parent chain.

B1: integrin αVβ8 headpiece (αV residues 1-594, β8 residues 1-456) (complex)
chain 1: FNLDVDSPAEYSGPEGSYFGFAVDFFVPSASSRMFLLVGAPKANTTQPGIVEGGQVLKCDWSSTRRCQPIEFDATGNRDYAKDDPLEFKSHQWFGASVRSKQDKILACAPLYHWRTEMKQEREPVGTCFLQDGTKTVEYAPCRSQDIDADGQGFCQGGFSIDFTKADRVLLGGPGSFYWQGQLISDQVAEIVSKYDPNVYSIKYNNQLATRTAQAIFDDSYLGYSVAVGDFNGDGIDDFVSGVPRAARTLGMVYIYDGKNMSSLYNFTGEQMAAYFGFSVAATDINGDDYADVFIGAPLFMDRGSDGKLQEVGQVSVSLQRASGDFQTTKLNGFEVFARFGSAIAPLGDLDQDGFNDIAIAAPYGGEDKKGIVYIFNGRSTGLNAVPSQILEGQWAARSGCPPSFGYSMKGATDIDKNGYPDLIVGAFGVDRAILYRARPVITVNAGLEVYPSILNQDNKTCSLPGTALKVSCFNVRFCLKADGKGVLPRKLNFQVELLLDKLKQKGAIRRALFLYSRSPSHSKNMTISRGGLMQCEELIAYLRDESEFRDKLTPITIFMEYRLDYRTAADTTGLQPILNQFTPANISRQAHILLD
chain 2: EDNRCASSNAASCARCLALGPECGWCVQEDFISGGSRSERCDIVSNLISKGCSVDSIEYPSVHVIIPTENEINTQVTPGEVSIQLRPGAEANFMLKVHPLKKYPVDLYYLVDVSASMHNNIEKLNSVGNDLSRKMAFFSRDFRLGFGSYVDKTVSPYISIHPERIHNQCSDYNLDCMPPHGYIHVLSLTENITEFEKAVHRQKISGNIDTPEGGFDAMLQAAVCESHIGWRKEAKRLLLVMTDQTSHLALDSKLAGIVCPNDGNCHLKNNVYVKSTTMEHPSLGQLSEKLIDNNINVIFAVQGKQFHWYKDLLPLLPGTIAGEIESKAANLNNLVVEAYQKLISEVKVQVENQVQGIYFNITAICPDGSRKPGMEGCRNVTSNDEVLFNVTVTMKKCDVTGGKNYAIIKPIGFNETAKIHIHRNCSCQCEDNRGPKGKCVDETFLDSKCFQCDENK
B2: integrin αVβ6 headpiece (αV residues 1-594, β6 residues 1-474) (complex)
chain 1: B1 chain 1
chain 2: HVQGGCALGGAETCEDCLLIGPQCAWCAQENFTHPSGVGERCDTPANLLAKGCQLNFIENPVSQVEILKNKPLSVGRQKNSSDIVQIAPQSLILKLRPGGAQTLQVHVRQTEDYPVDLYYLMDLSASMDDDLNTIKELGSRLSKEMSKLTSNFRLGFGSFVEKPVSPFVKTTPEEIANPCSSIPYFCLPTFGFKHILPLTNDAERFNEIVKNQKISANIDTPEGGFDAIMQAAVCKEKIGWRNDSLHLLVFVSDADSHFGMDSKLAGIVCPNDGLCHLDSKNEYSMSTVLEYPTIGQLIDKLVQNNVLLIFAVTQEQVHLYENYAKLIPGATVGLLQKDSGNILQLIISAYEELRSEVELEVLGDTEGLNLSFTAICNNGTLFQHQKKCSHMKVGDTASFSVTVNIPHCERRSRHIIIKPVGLGDALELLVSPECNCDCQKEVEVNSSKCHHGNGSFQCGVCACHPGHMGPRCE
B3: integrin αVβ6-8DLL headpiece (the disulfide-linked loop of β6 substituted by that of β8) (complex)
chain 1: B1 chain 1
chain 2: B2 chain 2 with S182D, I183Y, P184N, Y185L, F186D

How the values were obtained:
[1] = biological target: L-TGF-β1/LRRC33 complex (L-TGF-β1 dimer disulfide-linked to one LRRC33 ectodomain) (human, N-linked glycosylation | N-linked glycosylation); assay: cryo-EM structure; purified αVβ8 headpiece and purified L-TGF-β1/LRRC33 mixed on ice at a molar ratio of 2.2:1 with 1 mM MnCl2 and 0.2 mM CaCl2, then SEC; 2:2:1 map at 5.19 Å, masked 1:2 αVβ8/L-TGF-β1 at 3.24 Å; details: both partners purified
Chain of L-TGF-β1/LRRC33 complex (L-TGF-β1 dimer disulfide-linked to one LRRC33 ectodomain) (human, N-linked glycosylation | N-linked glycosylation) (chain, as listed by the source, chain 1 of 2): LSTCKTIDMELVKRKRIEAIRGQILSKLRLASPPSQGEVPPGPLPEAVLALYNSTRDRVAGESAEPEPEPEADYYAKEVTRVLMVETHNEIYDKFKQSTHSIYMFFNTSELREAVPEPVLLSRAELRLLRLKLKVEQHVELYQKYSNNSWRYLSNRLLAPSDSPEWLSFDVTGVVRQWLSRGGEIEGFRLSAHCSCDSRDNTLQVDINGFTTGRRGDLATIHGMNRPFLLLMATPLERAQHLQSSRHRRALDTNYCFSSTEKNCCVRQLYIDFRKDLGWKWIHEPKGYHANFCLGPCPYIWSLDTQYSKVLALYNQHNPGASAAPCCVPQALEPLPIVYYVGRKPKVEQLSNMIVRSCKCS
Chain of L-TGF-β1/LRRC33 complex (L-TGF-β1 dimer disulfide-linked to one LRRC33 ectodomain) (human, N-linked glycosylation | N-linked glycosylation) (chain, as listed by the source, chain 2 of 2): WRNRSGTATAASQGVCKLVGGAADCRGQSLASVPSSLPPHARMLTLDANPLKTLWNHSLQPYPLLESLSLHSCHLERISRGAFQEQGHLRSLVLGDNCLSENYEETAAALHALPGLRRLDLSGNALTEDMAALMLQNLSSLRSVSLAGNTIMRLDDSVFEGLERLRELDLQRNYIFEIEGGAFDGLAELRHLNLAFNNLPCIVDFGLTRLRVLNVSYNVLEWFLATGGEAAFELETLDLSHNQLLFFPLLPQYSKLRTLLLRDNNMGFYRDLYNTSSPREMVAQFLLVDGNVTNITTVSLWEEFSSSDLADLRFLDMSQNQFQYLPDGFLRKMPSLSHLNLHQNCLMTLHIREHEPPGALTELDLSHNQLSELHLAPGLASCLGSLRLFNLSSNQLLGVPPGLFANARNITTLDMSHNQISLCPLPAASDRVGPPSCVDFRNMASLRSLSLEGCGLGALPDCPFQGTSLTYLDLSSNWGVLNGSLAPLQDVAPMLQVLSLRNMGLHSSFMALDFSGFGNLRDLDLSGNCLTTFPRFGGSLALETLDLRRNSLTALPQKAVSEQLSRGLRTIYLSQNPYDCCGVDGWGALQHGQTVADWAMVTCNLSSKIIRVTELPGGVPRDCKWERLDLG

[2] = biological target: T1, L-TGF-β1 C4S/R249A (the 'WT' of the SPR assay) (human); assay: SPR; Biacore T200, 25 °C; L-TGF-β1 (C4S/R249A, or + RGEGATG) immobilised on a CM5 chip by amine coupling; integrin headpieces injected at 20 μl/min in 20 mM HEPES pH 7.5, 150 mM NaCl, 1 mM MgCl2, 1 mM CaCl2; 1:1 Langmuir model; details: both partners purified
T1 construct: latent TGF-β1, human, with C4S and R249A; numbers count on: the protein without its signal peptide; The methods describe L-TGF-β1 alone as N-terminally His6-tagged, made in HEK293S GnTI- cells, tag cleaved with PreScission; also called WT (C4S/R249A) L-TGF-β1; mutant L-TGF-β1 (C4S/R249A); source: purified
T1 sequence (P01137 other isoform, or with tags, fused parts or gaps R249A R249A): as the sequence (chain, as listed by the source, chain 1 of 2) above, with C4S, R249A counted along it

| Binder | stoichiometry N [1] | Kd [2] |
| --- | --- | --- |
| B1 | 2 αVβ8 per L-TGF-β1 dimer/LRRC33 complex | 111 nM |
| B2 | – | 2.18 nM |
| B3 | – | 46.9 nM |
